Measured values from patent US20210130436A1 (published 2021).
Substitutions are numbered along the chain they refer to. Names and notes keep the numbering of the source. Values belong to the binder of their own block, whether it stands above or below them.

What was measured:
[1] = molecular target: T1, human CD28, endogenously expressed on Jurkat/IL2 reporter cells (human, UniProt P10747 19-220); test: flow cytometry, Jurkat/IL2 reporter cells (endogenous CD28), 33.3 nM Fc fusion, PE anti-human Fc
T1 construct: This is the endogenous CD28 of Jurkat cells

human CTLA-4 [2] = molecular target: T2, human CTLA-4 (human, UniProt P16410 36-223); test: flow cytometry, CHO cells stably expressing huCTLA4, 33.3 nM, PE anti-human Fc
T2 construct: whole, on cells; also called huCTLA4
T2 sequence (P16410 36-223): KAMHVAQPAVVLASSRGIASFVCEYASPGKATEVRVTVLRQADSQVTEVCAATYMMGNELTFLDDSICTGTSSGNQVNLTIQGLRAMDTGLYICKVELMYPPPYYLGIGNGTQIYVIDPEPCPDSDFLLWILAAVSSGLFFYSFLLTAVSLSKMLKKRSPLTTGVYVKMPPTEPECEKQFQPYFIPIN

human PD-L1 [3] = molecular target: T3, human PD-L1 (human, UniProt Q9NZQ7 19-290); test: flow cytometry, CHO cells stably expressing huPD-L1, 33.3 nM, PE anti-human Fc
T3 construct: whole, on cells; also called huPD-L1
T3 sequence (Q9NZQ7 19-290): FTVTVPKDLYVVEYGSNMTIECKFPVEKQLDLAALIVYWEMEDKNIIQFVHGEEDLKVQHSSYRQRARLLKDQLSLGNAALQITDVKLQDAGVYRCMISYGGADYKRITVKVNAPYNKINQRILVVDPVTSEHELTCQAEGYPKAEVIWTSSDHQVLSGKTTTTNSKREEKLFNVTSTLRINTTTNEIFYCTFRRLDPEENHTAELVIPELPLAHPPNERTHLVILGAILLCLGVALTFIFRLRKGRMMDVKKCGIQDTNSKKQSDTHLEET

[4] = molecular target: T4, CD28 endogenously expressed on Jurkat/IL2 reporter cells (human, UniProt P10747 19-220); test: flow cytometry, Jurkat cells (CD28), Fc fusion at 33.3 nM
T4 construct: whole, on cells; Target on Jurkat cells; also called Jurkats (CD28)

[5] = molecular target: T5, human CTLA4 expressed on CHO cells (human, UniProt P16410 36-223); test: flow cytometry, CHO cells stably expressing CTLA4, Fc fusion at 33.3 nM
T5 construct: whole, on cells; Target on CHO cells stably expressing CTLA4; also called huCTLA4

[6] = molecular target: T6, human PD-L1 expressed on CHO cells (human, UniProt Q9NZQ7 19-290); test: flow cytometry, CHO cells stably expressing PD-L1, Fc fusion at 33.3 nM
T6 construct: whole, on cells; Target on CHO cells stably expressing PD-L1; also called huPD-L1

human PD-L1 [7] = molecular target: T7, human PD-L1 (human, UniProt Q9NZQ7 19-290); test: flow cytometry MFI relative to WT CD80 IgV-Fc, CHO/huPD-L1 cells, 33.3 nM
T7 construct: whole, on cells; CHO cells stably expressing huPD-L1; also called huPD-L1
T7 sequence (Q9NZQ7 19-290): as above

human CTLA-4 [8] = molecular target: T8, human CTLA-4 (human, UniProt P16410 36-223); test: flow cytometry MFI relative to WT CD80 IgV-Fc, CHO/huCTLA-4 cells, 33.3 nM
T8 construct: whole, on cells; CHO cells stably expressing huCTLA4; also called huCTLA4
T8 sequence (P16410 36-223): as the sequence (P16410 36-223) above

human CD28 [9] = molecular target: T9, human CD28 (human, UniProt P10747 19-220); test: flow cytometry MFI relative to WT CD80 IgV-Fc, Jurkat cells (CD28), 33.3 nM
T9 construct: whole, on cells; Jurkat/IL2 reporter cells, which endogenously express CD28

human PD-L1 [10] = molecular target: T7, human PD-L1; test: flow cytometry, MFI on CHO/huPD-L1 cells divided by MFI on Jurkat cells (CD28), 33.3 nM
human PD-L1 [11] = molecular target: T7, human PD-L1; test: flow cytometry, CHO cells stably expressing huPD-L1, 33.3 nM Fc fusion, PE anti-human Fc
human CTLA-4 [12] = molecular target: T8, human CTLA-4; test: flow cytometry, CHO cells stably expressing huCTLA-4, 33.3 nM Fc fusion, PE anti-human Fc
human CD28 [13] = molecular target: T9, human CD28; test: flow cytometry, Jurkat/IL2 reporter cells (endogenous CD28), 33.3 nM Fc fusion, PE anti-human Fc

T5 sequence (P16410 36-223): as above
T6 sequence (Q9NZQ7 19-290): as the sequence (Q9NZQ7 19-290) above

B3: CD80 E35D/M47V/N48K/V68M/K89N IgV-Fc (Fc fusion, not shown: small tags and cut ends; a dimerising Fc or GST)
chain: VIHVTKEVKEVATLSCGHNVSVEELAQTRIYWQKDKKMVLTMMSGDVKIWPEYKNRTIFDITNNLSIMILALRPSDEGTYECVVLKYENDAFKREHLAEVTLSVKAD
MFI at 33.3 nM [4]: 1350 MFI
MFI at 33.3 nM [5]: 20900 MFI
MFI at 33.3 nM [6]: 14800 MFI

B4: variant CD80 IgV-Fc (inert) H18V/E35D/M47V/V68M/A71G/D90G (Fc fusion)
chain: B3 chain with H18V, K48N, A71G, N89K, D90G
notes: not shown: inert human IgG1 Fc
Fold change to WT CD80 (human PD-L1 [7]): 264 fold
Fold change to WT CD80 (human CTLA-4 [8]): 12.1 fold
Fold change to WT CD80 (human CD28 [9]): 20.7 fold
Ratio of PDL1:CD28 (human PD-L1 [10]): 20.6 ratio
MFI at 33.3 nM (human PD-L1 [11]): 43600 MFI
MFI at 33.3 nM (human CTLA-4 [12]): 16800 MFI
MFI at 33.3 nM (human CD28 [13]): 2120 MFI

B7: variant CD80 IgV-Fc (inert) H18Y/E35D/M47V/V68L/A71G/D90G (Fc fusion)
chain: B3 chain with H18Y, K48N, M68L, A71G, N89K, D90G
notes: as for B4
Fold change to WT CD80 (human PD-L1 [7]): 290 fold
Fold change to WT CD80 (human CTLA-4 [8]): 11.9 fold
Fold change to WT CD80 (human CD28 [9]): 25 fold
Ratio of PDL1:CD28 (human PD-L1 [10]): 18.8 ratio
MFI at 33.3 nM (human PD-L1 [11]): 47900 MFI
MFI at 33.3 nM (human CTLA-4 [12]): 16500 MFI
MFI at 33.3 nM (human CD28 [13]): 2550 MFI

B9: CD80 E35D/M47V/K89N IgV-Fc (Fc fusion, not shown: small tags and cut ends; a dimerising Fc or GST)
chain: B3 chain with K48N, M68V
MFI at 33.3 nM [4]: 507 MFI
MFI at 33.3 nM [5]: 39300 MFI
MFI at 33.3 nM [6]: 4340 MFI

B12: CD80 N48K/K89N IgV-Fc (Fc fusion, not shown: small tags and cut ends; a dimerising Fc or GST)
chain: B3 chain with D35E, V47M, M68V
MFI at 33.3 nM [4]: 170 MFI
MFI at 33.3 nM [5]: 4370 MFI

The remaining lines, values ahead:

MFI at 33.3 nM [1]: 7630 MFI
B1: wild-type CD80 ECD-Fc (R&D Systems) (Fc fusion)
chain: VIHVTKEVKEVATLSCGHNVSVEELAQTRIYWQKEKKMVLTMMSGDMNIWPEYKNRTIFDITNNLSIVILALRPSDEGTYECVVLKYEKDAFKREHLAEVTLSVKADFPTPSISDFEIPTSNIRRIICSTSGGFPEPHLSWLENGEELNAINTTVSQDPETELYAVSSKLDFNMTTNHSFMCLIKYGHLRVNQTFNWNTTKQEHFPDN
notes: This is a commercial protein; also called WT CD80 ECD-Fc (R&D); unmodified CD80-ECD-Fc fusion molecule; not shown: Bought protein (R&D Systems)

MFI at 33.3 nM (human CTLA-4 [2]): 8910 MFI
MFI at 33.3 nM (human PD-L1 [3]): 8420 MFI
B2: E35D/M47I/T62S/L85Q/E88D CD80 IgV-Fc (Fc fusion, not shown: a dimerising Fc or GST)
chain: B3 chain with V47I, K48N, T62S, M68V, L85Q, E88D, N89K

Fold change to WT CD80 (human PD-L1 [7]): 393 fold
Fold change to WT CD80 (human CTLA-4 [8]): 17.1 fold
Fold change to WT CD80 (human CD28 [9]): 31.6 fold
Ratio of PDL1:CD28 (human PD-L1 [10]): 20.1 ratio
MFI at 33.3 nM (human PD-L1 [11]): 64900 MFI
MFI at 33.3 nM (human CTLA-4 [12]): 23600 MFI
MFI at 33.3 nM (human CD28 [13]): 3230 MFI
B5: variant CD80 IgV-Fc (inert) H18Y/E35D/M47V/V68M/A71G (Fc fusion)
chain: B3 chain with H18Y, K48N, A71G, N89K
notes: Fc fusions are dimeric by the general description; not shown: inert human IgG1 Fc

Fold change to WT CD80 (human PD-L1 [7]): 204 fold
Fold change to WT CD80 (human CTLA-4 [8]): 12.8 fold
Fold change to WT CD80 (human CD28 [9]): 30.6 fold
Ratio of PDL1:CD28 (human PD-L1 [10]): 10.7 ratio
MFI at 33.3 nM (human PD-L1 [11]): 33600 MFI
MFI at 33.3 nM (human CTLA-4 [12]): 17700 MFI
MFI at 33.3 nM (human CD28 [13]): 3130 MFI
B6: variant CD80 IgV-Fc (inert) H18V/A26Q/E35D/M47V/V68L/A71G/D90G (Fc fusion)
chain: B3 chain with H18V, A26Q, K48N, M68L, A71G, N89K, D90G
notes: as for B4

Fold change to WT CD80 (human PD-L1 [7]): 393 fold
Fold change to WT CD80 (human CTLA-4 [8]): 15.8 fold
Fold change to WT CD80 (human CD28 [9]): 25.2 fold
Ratio of PDL1:CD28 (human PD-L1 [10]): 25.2 ratio
MFI at 33.3 nM (human PD-L1 [11]): 64900 MFI
MFI at 33.3 nM (human CTLA-4 [12]): 21900 MFI
MFI at 33.3 nM (human CD28 [13]): 2570 MFI
B8: variant CD80 IgV-Fc (inert) H18I/A26P/E35D/M47V/V68M/A71G (Fc fusion)
chain: B3 chain with H18I, A26P, K48N, A71G, N89K
notes: as for B4

Fold change to WT CD80 (human PD-L1 [7]): 167 fold
Fold change to WT CD80 (human CTLA-4 [8]): 12.4 fold
Fold change to WT CD80 (human CD28 [9]): 59.1 fold
Ratio of PDL1:CD28 (human PD-L1 [10]): 4.6 ratio
MFI at 33.3 nM (human PD-L1 [11]): 27500 MFI
MFI at 33.3 nM (human CTLA-4 [12]): 17200 MFI
MFI at 33.3 nM (human CD28 [13]): 6030 MFI
B10: variant CD80 IgV-Fc (inert) H18F/A26D/E35D/D46E/M47T/V68M/A71G/D90G (Fc fusion)
chain: B3 chain with H18F, A26D, D46E, V47T, K48N, A71G, N89K, D90G
notes: as for B4

Fold change to WT CD80 (human PD-L1 [7]): 318 fold
Fold change to WT CD80 (human CTLA-4 [8]): 11.7 fold
Fold change to WT CD80 (human CD28 [9]): 24 fold
Ratio of PDL1:CD28 (human PD-L1 [10]): 21.4 ratio
MFI at 33.3 nM (human PD-L1 [11]): 52400 MFI
MFI at 33.3 nM (human CTLA-4 [12]): 16200 MFI
MFI at 33.3 nM (human CD28 [13]): 2450 MFI
B11: variant CD80 IgV-Fc (inert) H18V/A26P/E35D/M47L/V68M/A71G (Fc fusion)
chain: B3 chain with H18V, A26P, V47L, K48N, A71G, N89K
notes: as for B4
